Results as given in paper PMC5628404, “Central catalytic domain of BRAP (RNF52) recognizes the types of ubiquitin chains and utilizes oligo-ubiquitin for ubiquitylation” (Biochemical Journal, 2017).

Target: T1, M1-linked di-ubiquitin chain (M1-Ub2) (human, UniProt P0CG48 1-76; P0CG48 1-76)
T1 construct: ubiquitin unit 1 of 2, joined head to tail (M1 linkage); from polyubiquitin-C (UBC), human; ubiquitin unit 2 of 2, joined head to tail (M1 linkage); One polypeptide of two ubiquitin units joined by a peptide bond G76-M1; also called linear di-ubiquitin; source: E. coli KRX, purified (method of Pickart and Raasi); made in the authors' laboratory
Assay: SPR; Biacore 3000; ubiquitin monomer or ubiquitin chains amine-coupled to a CM5 chip; BRAP as analyte, serially diluted; 10 mM HEPES-NaOH pH 7.5, 150 mM NaCl, 0.005% surfactant P20; 25°C
Conditions: both partners purified

Binder | Kd [nM] | binding result
BRAP (124–569) (RNF52 domain) (domain or fragment, human, UniProt Q7Z569 124-569, looked up, The construct had the tag, a TEV site and a GSSGSSG linker at the N-terminus; after TEV cleavage the linker probably stays on the protein (surmised); also called RNF52 domain of BRAP; central catalytic domain of BRAP; source: cell-free synthesis in E. coli S30 extract, zinc supplemented; purified (HisTrap, TEV cleavage, ion exchange, gel filtration)) DQISFFSGNPSVEIVHGIMHLYKTNKMTSLKEDVRRSAMLCILTVPAAMTSHDLMKFVAPFNEVIEQMKIIRDSTPNQYMVLIKFRAQADADSFYMTCNGRQFNSIEDDVCQLVYVERAEVLKSEDGASLPVMDLTELPKCTVCLERMDESVNGILTTLCNHSFHSQCLQRWDDTTCPVCRYCQTPEPVEENKCFECGVQENLWICLICGHIGCGRYVSRHAYKHFEETQHTYAMQLTNHRVWDYAGDNYVHRLVASKTDGKIVQYECEGDTCQEEKIDALQLEYSYLLTSQLESQRIYWENKIVRIEKDTAEEINNMKTKFKETIEKCDNLEHKLNDLLKEKQSVERKCTQLNTKVAKLTNELKEEQEMNKCLRANQVLLQNKLKEEERVLKETCDQKDLQITEIQEQLRDVMFYLETQQKINHLPAETRQEIQEGQINIAMASA | 95.1 | 
BRAP (1–592) (full-length) (natural protein, human, UniProt Q7Z569 1-592, looked up, The construct had the tag, a TEV site and a GSSGSSG linker at the N-terminus; after TEV cleavage the linker probably stays on the protein (surmised); also called full-length BRAP; BRAP2; source: cell-free synthesis in E. coli S30 extract, zinc supplemented; purified (MBPTrap, TEV cleavage, ion exchange, gel filtration); not shown: MBP, N-terminal, cleaved) MSVSLVVIRLELAEHSPVPAGFGFSAAAGEMSDEEIKKTTLASAVACLEGKSPGEKVAIIHQHLGRREMTDVIIETMKSNPDELKTTVEERKSSEASPTAQRSKDHSKECINAAPDSPSKQLPDQISFFSGNPSVEIVHGIMHLYKTNKMTSLKEDVRRSAMLCILTVPAAMTSHDLMKFVAPFNEVIEQMKIIRDSTPNQYMVLIKFRAQADADSFYMTCNGRQFNSIEDDVCQLVYVERAEVLKSEDGASLPVMDLTELPKCTVCLERMDESVNGILTTLCNHSFHSQCLQRWDDTTCPVCRYCQTPEPVEENKCFECGVQENLWICLICGHIGCGRYVSRHAYKHFEETQHTYAMQLTNHRVWDYAGDNYVHRLVASKTDGKIVQYECEGDTCQEEKIDALQLEYSYLLTSQLESQRIYWENKIVRIEKDTAEEINNMKTKFKETIEKCDNLEHKLNDLLKEKQSVERKCTQLNTKVAKLTNELKEEQEMNKCLRANQVLLQNKLKEEERVLKETCDQKDLQITEIQEQLRDVMFYLETQQKINHLPAETRQEIQEGQINIAMASASSPASSGGSGKLPSRKGRSKRGK |  | binds
